We go through four molecules from article doi:10.1101/2025.09.29.679115.

For data set [1], the target named is T1, MBP-HSFA1d (Arabidopsis thaliana, UniProt Q9LQM7 1-485). Description: EMSA.
The target of data set [2] is T1, MBP-HSFA1d. Description: competition.

T1 sequence (Q9LQM7 whole entry): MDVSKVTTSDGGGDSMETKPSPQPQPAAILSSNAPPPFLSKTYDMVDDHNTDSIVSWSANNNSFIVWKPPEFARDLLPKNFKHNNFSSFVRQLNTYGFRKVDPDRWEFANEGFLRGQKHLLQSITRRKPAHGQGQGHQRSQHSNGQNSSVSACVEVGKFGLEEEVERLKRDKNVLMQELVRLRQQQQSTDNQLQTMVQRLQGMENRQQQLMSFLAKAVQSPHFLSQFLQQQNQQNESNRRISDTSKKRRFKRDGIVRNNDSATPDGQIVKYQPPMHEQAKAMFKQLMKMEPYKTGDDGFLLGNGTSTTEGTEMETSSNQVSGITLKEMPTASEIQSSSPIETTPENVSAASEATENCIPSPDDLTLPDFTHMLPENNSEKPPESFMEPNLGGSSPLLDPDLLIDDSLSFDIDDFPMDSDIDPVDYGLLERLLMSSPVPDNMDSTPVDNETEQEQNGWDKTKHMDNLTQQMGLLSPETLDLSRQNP

B1: ZAT6 promoter probe (dsDNA)
DNA 1: AATTCTTATCACTTAAGAATATTCTAGAGAGCTCTCACTT
DNA 2: AAGTGAGAGCTCTCTAGAATATTCTTAAGTGATAAGAATT
Take B1: in the data set with MBP-HSFA1d [1], the binding result is “binds”.

B2: WIND1_m probe (dsDNA)
DNA 1: AATCCCTCCCTAAACCTCTATGGGACCTTATTAATTTTTG
DNA 2: CAAAAATTAATAAGGTCCCATAGAGGTTTAGGGAGGGATT
As to B2, the binding result in the data set with MBP-HSFA1d [1] was “no binding”.

B3: WIND1 promoter probe (dsDNA)
DNA 1: AATCCCTCCCTAAACCTCTAGAGAGTTCTATTAATTTTTG
DNA 2: CAAAAATTAATAGAACTCTCTAGAGGTTTAGGGAGGGATT
Turning to B3, the binding result with MBP-HSFA1d [1] is “binds”.

B4: WIND1 unlabelled competitor (dsDNA)
DNA 1: B3 DNA 1
DNA 2: B3 DNA 2
Consider B4, for which the binding result in the data set with MBP-HSFA1d [2] was “binds”.
